Laboratory results: patent publication US20210379195A1, “METHODS FOR ALLOGENEIC HEMATOPOIETIC STEM CELL TRANSPLANTATION” (Magenta Therapeutics, Inc., priority 2018, published 2021)
Residue numbers refer to the chain shown, from its start.

B1: Ab61: anti-CD117 antibody, VH SEQ ID NO: 69, VL SEQ ID NO: 70 (antibody, V domains shown)
VH: EVQLLESGGGLVQPGGSLRLSCAASGFTFSSYVMIWVRQAPGKGLEWVSSISGDSVTTYYADSVKGRFTISRDNSKNTLYLQMNSLRAEDTAVYYCAKGPPTYHTNYYYMDVWGKGTTVTVSS
VL: DIQMTQSPSSVSASVGDRVTITCRASQGISSWLAWYQQKPGKAPKLLIYAASSLQSGVPSRFSGSGSGTDFTLTISSLQPEDFATYYCQQTNSFPYTFGGGTKVEIK
B2: Ab54: anti-CD117 antibody, VH SEQ ID NO: 29, VL SEQ ID NO: 30 (antibody, V domains shown)
VH: QVQLVQSGAEVKKPGSSVKVSCKASGGTFSSYAISWVRQAPGQGLEWMGGIIPIFGTANYAQKFQGRVTITADESTSTAYMELSSLRSEDTAVYYCARGGLDTDEFDLWGRGTLVTVSS
VL: DIQMTQSPSSLSASVGDRVTITCRASQSINSYLNWYQQKPGKAPKLLIYAASSLQSGVPSRFSGSGSGTDFTLTISSLQPEDFATYYCQQGVSDITFGGGTKVEIK
B3: Ab56: anti-CD117 antibody, VH SEQ ID NO: 39, VL SEQ ID NO: 40 (antibody, V domains shown)
VH: B2 VH with S31L, I54A
VL: B2 VL
B4: Ab57: anti-CD117 antibody, VH SEQ ID NO: 49, VL SEQ ID NO: 50 (antibody, V domains shown)
VH: B2 VH with S31L, I54H, T57L
VL: B2 VL
B5: Ab55: anti-CD117 antibody, VH SEQ ID NO: 19, VL SEQ ID NO: 20 (antibody, V domains shown)
VH: B2 VH with S30R, S31I, I54D, T57V
VL: B2 VL
B6: Ab249: human anti-CD117 antibody derived from CK6, VH SEQ ID NO: 238, VL SEQ ID NO: 242 (antibody, V domains shown)
VH: EVQLVQSGAEVKKPGESLKISCKGSGYRFTTSWIGWVRQMPGKGLEWMGIIYPGDSDTRYSPSFQGQVTISADKSISTAYLQWSSLKASDTAMYYCARHGLGYNGYEGAFDIWGQGTLVTVSS
VL: DIQMTQSPSSLSASVGDRVTITCRASQGIGSALAWYQQKPGKAPKLLIYDASNLETGVPSRFSGSGSGTDFTLTISSLQPEDFATYYCQQLNGYPLTFGQGTRLEIK

Experiments:
CD117 [1] = target: T1, CD117 (Homo sapiens, UniProt P10721); test: In vitro stem cell factor (SCF)-dependent cell proliferation assay (neutral vs antagonist); type: cell-based; design: endogenous in cells; host or cells: CD34+ cells dependent on SCF
Source text: Neutral antibodies can be identified using, for example, an in in vitro stem cell factor (SCF)-dependent cell proliferation assay. In an SCF dependent cell proliferation assay, a neutral CD117 antibody will not kill CD34+ cells that are dependent on SCF to divide, as a neutral antibody will not block SCF from binding to CD117 such as to inhibit CD117 activity.

CD117 [2] = target: T1, CD117; test: Bio-layer interferometry (BLI) binding
Source text: In certain embodiments, an anti-CD117 antibody, or antigen binding fragment thereof, has a certain dissociation rate which is particularly advantageous when used as a part of a conjugate. For example, an anti-CD117 antibody has, in certain embodiments, an off rate constant (Koff) for human CD117 and/or rhesus CD117 of 1×10^−2 to 1×10^−3, 1×10^−3 to 1×10^−4, […] or 1×10^−7 to 1×10^−8, as measured by bio-layer interferometry (BLI). In some embodiments, the antibody or antigen-binding fragment thereof binds CD117 (e.g., human CD117 and/or rhesus CD117) with a KD of about 100 nM or less, about 90 nM or less, about 80 nM or less, about 70 nM or less, about 60 nM or less, about 50 nM or less, about 40 nM or less, about 30 nM or less, about 20 nM or less, about 10 nM or less, about 8 nM or less, about 6 nM or less, about 4 nM or less, about 2 nM or less, about 1 nM or less as determined by a Bio-Layer Interferometry (BLI) assay.
Thus, in certain embodiments, an anti-CD117 antibody comprises a heavy chain comprising a CDR set (CDR1, CDR2, and CDR3) as set forth in SEQ ID Nos: 245, 246, and 247, and a light chain comprising a CDR set as set forth in SEQ ID Nos: 248, 249, and […], internalizes in cells expressing CD117, and has a koff rate of 5×10^−4 s^−1 or less as measured by BLI.

T1 sequence (P10721 26-976): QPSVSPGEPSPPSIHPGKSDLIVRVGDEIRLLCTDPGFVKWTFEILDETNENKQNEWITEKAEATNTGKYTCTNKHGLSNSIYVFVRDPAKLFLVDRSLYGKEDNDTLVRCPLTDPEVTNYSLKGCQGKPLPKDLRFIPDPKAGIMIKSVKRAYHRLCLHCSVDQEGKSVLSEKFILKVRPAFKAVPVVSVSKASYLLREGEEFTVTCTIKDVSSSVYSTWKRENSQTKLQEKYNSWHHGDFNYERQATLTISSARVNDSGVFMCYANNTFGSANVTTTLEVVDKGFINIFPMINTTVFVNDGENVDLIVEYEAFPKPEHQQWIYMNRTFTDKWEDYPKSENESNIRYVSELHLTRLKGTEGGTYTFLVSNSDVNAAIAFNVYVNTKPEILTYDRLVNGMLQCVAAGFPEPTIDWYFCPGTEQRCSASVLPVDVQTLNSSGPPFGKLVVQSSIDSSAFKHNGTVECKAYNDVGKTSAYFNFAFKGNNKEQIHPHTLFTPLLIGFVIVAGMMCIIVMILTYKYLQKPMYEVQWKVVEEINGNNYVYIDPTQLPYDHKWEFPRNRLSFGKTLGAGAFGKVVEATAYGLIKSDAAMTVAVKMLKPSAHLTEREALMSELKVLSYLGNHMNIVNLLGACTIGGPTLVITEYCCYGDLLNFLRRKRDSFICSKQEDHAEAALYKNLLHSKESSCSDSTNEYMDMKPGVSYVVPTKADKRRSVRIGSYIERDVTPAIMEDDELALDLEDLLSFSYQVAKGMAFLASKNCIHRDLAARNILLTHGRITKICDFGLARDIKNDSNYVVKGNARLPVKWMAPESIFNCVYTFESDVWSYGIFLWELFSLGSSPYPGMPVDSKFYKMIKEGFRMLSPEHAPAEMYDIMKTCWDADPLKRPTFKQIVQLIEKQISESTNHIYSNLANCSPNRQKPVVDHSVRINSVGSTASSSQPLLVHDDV

Molecule	effect on CD117 activity (neutral or antagonist antibody) (CD117 [1])	binding characteristics over CK6 (CD117 [2])
B1	neutral	
B2	Antagonist	
B3	Antagonist	
B4	Antagonist	
B5	Antagonist	
B6		improved binding characteristics
